What all share (test): purified protein
Holding throughout (assay type): biochemical, Vitis vinifera

Substrate in data set [1]: NC(=O)c1ccc[n+]([C@@H]2O[C@H](COP(=O)(O)OP(=O)(O)OC[C@H]3O[C@@H](n4cnc5c(N)ncnc54)[C@H](OP(=O)(O)O)[C@@H]3O)[C@@H](O)[C@H]2O)c1
The settings on record: 4 mM shikimate, pH 9, 100 mM Bis-Tris Propane HCl, 30 °C.

Substrate in data set [2]: O=C(O)C1=C[C@@H](O)[C@@H](O)[C@H](O)C1
Conditions: 2 mM NADP+, pH 9, 100 mM Bis-Tris Propane HCl, 30 °C.

Substrate in data set [3]: O=C(O)C1=CC(=O)[C@@H](O)[C@H](O)C1
The settings on record: 0.4 mM NADPH, pH 7, 100 mM Bis-Tris Propane HCl, 30 °C, 3-DHS reduction, pH 7.0.

B1: VvSDH4 (Vitis vinifera) (protein)
chain: GARRNSTLICVPIMADSVDQMLGQIRKAKEVGGDLVEIRLDYLKNFSPRQDLQFLVKQSPLPTLVTYRPTWEGGQYDGDEGKRLDALRLAIELGADYIDVELQVAPEFINSIQGKTSGKVKIIVSSHNYQNTPSAEELGNLVARIQATGADIVKIATTALDITDCARIFQVLAHSQVPTIGIAMAERGLISRILSAKFGSYLTFGSLEAGVVSAPGQPTVKDLLDLYNFRQIGPDTKVHGVIGKPIGHSKSPHLYNSAFKSVGFNGIYLPLLVDSVKNFLATYSSPDFVGYSYTIPHKEDGLRCCDEIDPIAQAIGAISCMIRRPADGKLMGYNVDYLGAIAAIEEGLRASNGTTSVGSPLAGKLFVVIGAGGAGKALAYGGKEKGARVVVANRTFEKAKELASKVGGEAMTLAELENFHPEDGMILANTTSVGMKPNIDNTPLSKKALSRYSLVFDAIYTPKLTRLLREAQESGAIIVYGTEMFINQAFVQFERFTGLPAPKELIREVLVRNT
notes: partial cDNA lacking the first 17 aa (putative transit peptide); E. coli BL21(DE3); GST tag removed
What is called Km is the substrate concentration at which the rate is half of its maximum. For orientation: Vmax means the rate approached at saturating substrate. In general, kcat refers to the maximal rate divided by the concentration of active sites. What is called kcat/Km is the second-order rate constant that governs catalysis at low substrate concentration. For the protein B1, in the data set “purified protein [1]” (varied: cofactor), the Michaelis-Menten constant (Km) was 53.8 ± 5.8 µM, the maximum rate (Vmax) worked out at 30 µmol/min/mg, the kcat amounted to 28.9 ± 1.06 s⁻¹ and the kcat/Km turned out to be 537000 M⁻¹ s⁻¹. In “purified protein [2]”, the Km was 146.8 ± 60 µM, the Vmax stood at 27.6 µmol/min/mg, the turnover number (kcat) was 26.1 ± 4.97 s⁻¹ and the kcat/Km was found to be 178000 M⁻¹ s⁻¹.

B2: VvSDH1 (Vitis vinifera) (protein)
chain: MESGGMSKNSTLICVPIMGETIEKMVVDMSKAKTSGADLVEVRLDTLKRFNPRQDLEVLIRKCPLPTLFTYRPKWEGGQYEGDENSRRDALRLAMELGADYVDIELKVAHEFINSIHGRKPEKFKVIVSSHNYQNTPSVEDLGNLVVSIQATGADIVKIATTALEITDVARIFQITVHSQVPVIGLVMGERGLISRILCPKFSGYLTFGSLEPGIVSAPGQPTIKDLLNLYNFRQLGPDTKVFGVIGKPVSHSKSPHLYNEAFKSVGFNGVYVHLLVDDIAKFFHTYSAADFAGFSCTIPHKEAALKCCDEVSPVAKSIGAVNCIIRRPSDGKLFGYNTDYVGAISAIEDGLRDLHKISSTSGSPLAGKLFVVIGAGGAGKALAYGAKEKGARVVIANRTYARARELADAVGGDALSLADLNNFHPENGMILANTTSIGMQPKVDETPISKHALKYYSLVFDAIYTPKITRLLREAQESGATIVTGLEMFIGQAYEQFERFTGLPAPKELFKQFISNLQ
notes: E. coli BL21(DE3); GST tag removed after purification
In the case of B2, in the data set “purified protein [1]” (pH 9.0, varied: cofactor), the Km was determined as 214.7 ± 56.4 µM, the Vmax was 254 µmol/min/mg, the kcat worked out at 239 ± 26.3 s⁻¹ and the kcat/Km came to 1.11e+06 M⁻¹ s⁻¹. Also, in “purified protein [2]” (pH 9.0), the Km amounted to 90 ± 16 µM, the maximum rate (Vmax) came to 100 µmol/min/mg, the kcat is 94.5 ± 7.2 s⁻¹ and the kcat/Km was 1.05e+06 M⁻¹ s⁻¹. For the same protein, in the data set “purified protein [3]”, the Km came to 156.9 ± 31.3 µM, the Vmax was 102 µmol/min/mg, the catalytic constant (kcat) stood at 95.8 ± 10.2 s⁻¹ and the specificity constant (kcat/Km) was 611000 M⁻¹ s⁻¹.

B3: VvSDH3 (Vitis vinifera) (protein)
chain: MGSLPFTVSDLQTSVSGVRSNPTLLCTPLMGTTVEQMLTEMRKAKEIGADIVEIRLDCLRNFSPAQDLQILIKQSPLPTLVTYRPIWEGGQYEGDENKRQDALRLAMELGASYIDVELEVAHEFNNSIYGKKPQNFKVIVSSHNFHNTPSTEAIGNLVARIQASGADIVKIATTALDITDVARVLQVTVHSQVPTIAIVMGERGLISRLLSPKFGGYLTYGALEAGAISAPGQPTAKDLLDLYNFRLVKPDTKVYGIIGKPVGHSKSPLLFNAAFKKVGLNAVYVHLLVDDVEKFFNTYSAPDFISGCSCTIPHKEVAIKCMDTIDPIARKIGAINNIVRKPDGKLTAFNTDYIGAIEAIEDGLRESNGSSPAVGSPLAGKLFVVLGAGGAGKSLAYGAKEKGARVVVANRTFERAKDLADKVGGQALTLAEIENFHPEEGMILANTTSVGMKPKINDTPIPKHALKHYSLVFDAIYTPKDTRLLREAKESGKIIVYGTEMLIRQGFEQYKNFTGLPAPEELFRELMSKHA
notes: as for B2
Consider B3, for which, in the data set “purified protein [1]” (pH 9.0, varied: cofactor), the Km was 38.4 ± 11.9 µM, the Vmax amounted to 27 µmol/min/mg, the turnover number (kcat) is 26.1 ± 2.68 s⁻¹ and the kcat/Km was 680000 M⁻¹ s⁻¹. Also, in the data set “purified protein [2]” (pH 9.0), the Km worked out at 27.3 ± 10.4 µM, the maximal velocity (Vmax) amounted to 5.4 µmol/min/mg, the catalytic constant (kcat) is 5.16 ± 0.56 s⁻¹ and the kcat/Km is 189000 M⁻¹ s⁻¹. Besides, in “purified protein [3]”, the Michaelis-Menten constant (Km) was found to be 46.3 ± 18.2 µM, the Vmax came out at 9 µmol/min/mg, the catalytic constant (kcat) was 8.62 ± 0.93 s⁻¹ and the kcat/Km stood at 186000 M⁻¹ s⁻¹.

(Values after article PMC4892741, “Two shikimate dehydrogenases, VvSDH3 and VvSDH4, are involved in gallic acid biosynthesis in grapevine” (Journal of Experimental Botany, 2016).)
